Results on 35 molecules are retold here after PMC10786891, “Massively parallel profiling of RNA-targeting CRISPR-Cas13d”.

The labels stand for the following.
T1: EsCas13d, nuclease-dead (Eubacterium siraeum, UniProt B0MS50, R295A;H300A;R849A;H854A)
T1 sequence: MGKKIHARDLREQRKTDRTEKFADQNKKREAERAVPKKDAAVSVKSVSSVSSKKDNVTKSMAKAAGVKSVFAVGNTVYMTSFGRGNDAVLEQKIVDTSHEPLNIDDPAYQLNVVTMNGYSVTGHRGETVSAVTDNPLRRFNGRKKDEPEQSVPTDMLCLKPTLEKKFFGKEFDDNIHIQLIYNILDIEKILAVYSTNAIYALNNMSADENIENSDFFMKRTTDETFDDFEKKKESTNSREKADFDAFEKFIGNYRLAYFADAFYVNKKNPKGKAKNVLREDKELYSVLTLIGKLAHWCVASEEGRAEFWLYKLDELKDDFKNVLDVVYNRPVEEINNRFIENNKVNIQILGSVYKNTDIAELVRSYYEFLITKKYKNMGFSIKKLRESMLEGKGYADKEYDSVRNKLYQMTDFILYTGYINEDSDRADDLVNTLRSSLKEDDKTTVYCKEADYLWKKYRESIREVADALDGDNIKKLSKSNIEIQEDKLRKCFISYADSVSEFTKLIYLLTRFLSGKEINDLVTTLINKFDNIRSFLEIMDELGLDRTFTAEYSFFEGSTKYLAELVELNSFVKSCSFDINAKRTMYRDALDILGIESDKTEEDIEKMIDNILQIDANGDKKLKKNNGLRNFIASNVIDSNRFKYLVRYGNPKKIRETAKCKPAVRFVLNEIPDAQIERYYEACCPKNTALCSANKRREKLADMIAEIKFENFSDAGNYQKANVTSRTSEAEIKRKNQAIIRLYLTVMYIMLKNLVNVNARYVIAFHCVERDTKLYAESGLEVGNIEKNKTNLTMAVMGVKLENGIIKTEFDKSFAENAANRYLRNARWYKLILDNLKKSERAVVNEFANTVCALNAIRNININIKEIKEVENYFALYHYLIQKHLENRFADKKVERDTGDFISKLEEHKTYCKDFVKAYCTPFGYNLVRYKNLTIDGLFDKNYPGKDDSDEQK

B1: target 1 A9C,G15A (mixed)
RNA 1: CACCCGUGCAAAAAUGCAGGGGUCUAAAACUGAGCGGAUAACCUCUCUAUGG
RNA 2: GGGAAUGGAUCCACAUCUACGAAUUCGUACCAUAGAAAGGUUCUCCGCUCACCGAGAUCGGAAGAGCACACGU
B2: target 1 U11A,A16G (mixed)
RNA 1: B1 RNA 1
RNA 2: B1 RNA 2 with A36G, A37G, U41A, C43A
B3: target 1 insA 3' of 21,insC 3' of 20 (mixed)
RNA 1: B1 RNA 1
RNA 2: GGGAAUGGAUCCACAUCUACGAAUUCGUACCAACUAGAGAGGUUAUCCGCUCACCGAGAUCGGAAGAGCACACGU
B4: target 1 insU 3' of 4,insA 3' of 3 (mixed)
RNA 1: B1 RNA 1
RNA 2: GGGAAUGGAUCCACAUCUACGAAUUCGUACCAUAGAGAGGUUAUCCGCUUACACCGAGAUCGGAAGAGCACACGU
B5: target 2 MT 5'PFS UUU 3'PFS AGA (mixed)
RNA 1: CACCCGUGCAAAAUUGCAGGGGUCUAAAACCUUCUCCAAAUUGUUUCAUCCU
RNA 2: GGGAAUGGAUCCACAUCUACGAAUUCUUUAGGAUGAAACAAUUUGGAGAAGAGAAGAUCGGAAGAGCACACGU
B6: target 2 MT 5'PFS GGU 3'PFS UUC (mixed)
RNA 1: B5 RNA 1
RNA 2: B5 RNA 2 with U27G, U28G, A52U, G53U, A54C
B7: target 2 MT 5'PFS GUA 3'PFS ACU (mixed)
RNA 1: B5 RNA 1
RNA 2: B5 RNA 2 with U27G, U29A, G53C, A54U
B8: target 2 MT 5'PFS GGC 3'PFS CCG (mixed)
RNA 1: B5 RNA 1
RNA 2: B5 RNA 2 with U27G, U28G, U29C, A52C, G53C, A54G
B9: target 2 MT 5'PFS GCU 3'PFS CAU (mixed)
RNA 1: B5 RNA 1
RNA 2: B5 RNA 2 with U27G, U28C, A52C, G53A, A54U
B10: target 2 MT 5'PFS CGG 3'PFS ACC (mixed)
RNA 1: B5 RNA 1
RNA 2: B5 RNA 2 with U27C, U28G, U29G, G53C, A54C
B11: target 2 MT 5'PFS GGC 3'PFS CCA (mixed)
RNA 1: B5 RNA 1
RNA 2: B5 RNA 2 with U27G, U28G, U29C, A52C, G53C
B12: target 2 MT 5'PFS UCU 3'PFS ACA (mixed)
RNA 1: B5 RNA 1
RNA 2: B5 RNA 2 with U28C, G53C
B13: target 2 MT 5'PFS CUG 3'PFS UUA (mixed)
RNA 1: B5 RNA 1
RNA 2: B5 RNA 2 with U27C, U29G, A52U, G53U
B14: target 2 MT 5'PFS GUC 3'PFS AUG (mixed)
RNA 1: B5 RNA 1
RNA 2: B5 RNA 2 with U27G, U29C, G53U, A54G
B15: target 2 MT 5'PFS UGU 3'PFS UAC (mixed)
RNA 1: B5 RNA 1
RNA 2: B5 RNA 2 with U28G, A52U, G53A, A54C
B16: target 2 MT 5'PFS CGG 3'PFS UUC (mixed)
RNA 1: B5 RNA 1
RNA 2: B5 RNA 2 with U27C, U28G, U29G, A52U, G53U, A54C
B17: target 2 MT 5'PFS AGG 3'PFS CCU (mixed)
RNA 1: B5 RNA 1
RNA 2: B5 RNA 2 with U27A, U28G, U29G, A52C, G53C, A54U
B18: target 2 MT 5'PFS ACC 3'PFS AGA (mixed)
RNA 1: B5 RNA 1
RNA 2: B5 RNA 2 with U27A, U28C, U29C
B19: target 2 MT 5'PFS CUG 3'PFS UUU (mixed)
RNA 1: B5 RNA 1
RNA 2: B5 RNA 2 with U27C, U29G, A52U, G53U, A54U
B20: target 2 MT 5'PFS GUA 3'PFS ACC (mixed)
RNA 1: B5 RNA 1
RNA 2: B5 RNA 2 with U27G, U29A, G53C, A54C
B21: target 2 MT 5'PFS CGG 3'PFS ACA (mixed)
RNA 1: B5 RNA 1
RNA 2: B5 RNA 2 with U27C, U28G, U29G, G53C
B22: target 2 MT 5'PFS CUG 3'PFS UUC (mixed)
RNA 1: B5 RNA 1
RNA 2: B5 RNA 2 with U27C, U29G, A52U, G53U, A54C
B23: target 2 MT 5'PFS CUG 3'PFS UUG (mixed)
RNA 1: B5 RNA 1
RNA 2: B5 RNA 2 with U27C, U29G, A52U, G53U, A54G
B24: target 2 MT 5'PFS CGG 3'PFS UUG (mixed)
RNA 1: B5 RNA 1
RNA 2: B5 RNA 2 with U27C, U28G, U29G, A52U, G53U, A54G
B25: target 2 MT 5'PFS CUA 3'PFS CUU (mixed)
RNA 1: B5 RNA 1
RNA 2: B5 RNA 2 with U27C, U29A, A52C, G53U, A54U
B26: target 2 MT 5'PFS CAC 3'PFS UGU (mixed)
RNA 1: B5 RNA 1
RNA 2: B5 RNA 2 with U27C, U28A, U29C, A52U, A54U
B27: target 2 MT 5'PFS AGG 3'PFS CCG (mixed)
RNA 1: B5 RNA 1
RNA 2: B5 RNA 2 with U27A, U28G, U29G, A52C, G53C, A54G
B28: target 2 MT 5'PFS UGG 3'PFS CGC (mixed)
RNA 1: B5 RNA 1
RNA 2: B5 RNA 2 with U28G, U29G, A52C, A54C
B29: target 2 MT 5'PFS CGG 3'PFS UUA (mixed)
RNA 1: B5 RNA 1
RNA 2: B5 RNA 2 with U27C, U28G, U29G, A52U, G53U
B30: target 2 MT 5'PFS UUU 3'PFS AGG (mixed)
RNA 1: B5 RNA 1
RNA 2: B5 RNA 2 with A54G
B31: target 2 MT 5'PFS UGG 3'PFS CGA (mixed)
RNA 1: B5 RNA 1
RNA 2: B5 RNA 2 with U28G, U29G, A52C
B32: target 2 MT 5'PFS GUC 3'PFS AUA (mixed)
RNA 1: B5 RNA 1
RNA 2: B5 RNA 2 with U27G, U29C, G53U
B33: target 2 MT 5'PFS GGU 3'PFS UUU (mixed)
RNA 1: B5 RNA 1
RNA 2: B5 RNA 2 with U27G, U28G, A52U, G53U, A54U
B34: target 2 MT 5'PFS CAU 3'PFS UCU (mixed)
RNA 1: B5 RNA 1
RNA 2: B5 RNA 2 with U27C, U28A, A52U, G53C, A54U
B35: target 2 MT 5'PFS GUC 3'PFS AUC (mixed)
RNA 1: B5 RNA 1
RNA 2: B5 RNA 2 with U27G, U29C, G53U, A54C

Changes are numbered by the printed parent chain. Names may count otherwise.

The target of the data set is T1, EsCas13d, nuclease-dead. The data set is described as follows: crRNA (strand 1, pre-loaded); Mg2+; 40 mM Tris-HCl pH 7.5, 150 mM NaCl, 6 mM MgCl2, 1 mM DTT, 0.1% Tween-20, 0.2 mg/ml BSA; 25 C; 10 min per concentration, then washed. The conditions noted are these: tags: His6-TwinStrep-SUMO cleaved; N-terminal SNAP kept (SNAP-Surface 488); label: 3' end held by stalled T7 RNA polymerase.
As to B1, binding was characterised by a dissociation constant (Kd) of 35 ± 5 nM.
Regarding B2, binding was characterised by a dissociation constant (Kd) of 77 ± 15 nM.
The result for B3 reads 10 ± 0.5 nM.
For the molecule B4, the dissociation constant (Kd) came out at 8 ± 0.3 nM.
For the molecule B5, the Kd was determined as 7.3 ± 0.8 nM.
In turn, B6 gave a Kd of 73 ± 28 nM.
Take B7: binding was put at a Kd of 15.9 ± 2.7 nM.
Molecule B8 gave a Kd of 17.1 ± 3 nM.
As to B9, the dissociation constant Kd is 9.8 ± 2.5 nM.
In the case of B10 it was 12 ± 1.9 nM.
The molecule B11 showed a Kd of 16.9 ± 2.7 nM.
B12 gave a Kd of 9.2 ± 1.9 nM.
The result for B13 reads 4.7 ± 0.4 nM.
With B14, the Kd was 15.6 ± 1.9 nM.
Regarding B15, binding was characterised by a dissociation constant (Kd) of 25 ± 4 nM.
In the case of B16 it was 10.8 ± 1.7 nM; in that of B17, 40 ± 15 nM; in that of B18, 7.9 ± 3.1 nM.
The result for B19 reads 5.5 ± 0.5 nM.
B20 showed an equilibrium dissociation constant (Kd) of 22 ± 4 nM.
Molecule B21 came in with a Kd of 5 ± 0.5 nM.
The molecule B22 had a Kd of 7.3 ± 1.4 nM.
The molecule B23 gave a Kd of 5.8 ± 0.9 nM.
B24 registered a dissociation constant Kd of 6.5 ± 0.7 nM.
The result for B25 reads 4 ± 0.8 nM; that for B26, 2.27 ± 0.29 nM; that for B27, 8.2 ± 0.9 nM.
The result for B28 reads 5.8 ± 0.4 nM; that for B29, 7 ± 1 nM; that for B30, 4.9 ± 0.6 nM.
The molecule B31 registered a Kd of 5.4 ± 0.8 nM.
In turn, B32 registered a Kd of 12.6 ± 1.6 nM.
On to B33, for which binding was characterised by a dissociation constant (Kd) of 68 ± 20 nM.
For the molecule B34, binding was characterised by a dissociation constant (Kd) of 4.7 ± 0.7 nM.
Take B35: the Kd is 13.5 ± 1.2 nM.
